US20180231567A1

Experiments:
[1] = molecular target: serum IgE of the 10 allergic adults sensitized to peanut extract used for the inhibition experiments (Example 3) (human); assay: ELISA cross-inhibition; Ara h 6 immobilized, sera pre-incubated with competing allergen at 0.1, 1 and 10 ug/ml
[2] = molecular target: serum IgE of the 10 allergic adults sensitized to peanut extract used for the inhibition experiments (Example 3) (human); assay: ELISA cross-inhibition; Ara h 7.0201 immobilized, sera pre-incubated with competing allergen at 0.1, 1 and 10 ug/ml

B1: Ara h 2 isotype 2.0201, as expressed in example 1 (His fusion protein) (protein)
chain: MSHHHHHHIEGRTMRQQWELQGDRRCQSQLERANLRPCEQHLMQKIQRDEDSYGRDPYSPSQDPYSPSQDPDRRDPYSPSPYDRRGAGSSQHQERCCNELNEFENNQRCMCEALQQIMENQSDRLQGRQQEQQFKRELRNLPQQCGLRAPQRCDLEVESGGRDRY
- % inhibition (median) [1]: 43%
- % inhibition (median) [2]: 16%
